The assay has as its target T1, GFP-RGS19 (UniProt P49795 1-217).
T1 construct: RGS19, regulator of G protein signaling 19; Plasmid published earlier; also called GFP-tagged RGS19 construct; source: HEK293T, transfected, in lysate
T1 sequence (looked up): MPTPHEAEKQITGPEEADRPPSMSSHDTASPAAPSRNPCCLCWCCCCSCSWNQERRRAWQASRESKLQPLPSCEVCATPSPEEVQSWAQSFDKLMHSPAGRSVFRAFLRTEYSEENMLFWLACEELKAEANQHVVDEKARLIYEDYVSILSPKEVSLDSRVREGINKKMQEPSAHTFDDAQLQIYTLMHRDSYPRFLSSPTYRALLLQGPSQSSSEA
Description: co-IP; HEK293T co-transfected with the GFP-tagged construct and non-tagged Gαo variants; IP of the GFP fusion with a recombinant GST-tagged nanobody against GFP; Western blot with antibodies against Gαo and GFP; blots quantified with ImageJ. The conditions noted are these: partners not purified. For orientation: In western blotting, separated proteins are transferred to a membrane and probed.

Bounds are passed on as bounds.

B1: Gαo L39_G40insV (non-tagged) (natural protein, human, UniProt P09471-1 1-354, looked up)
chain: MGCTLSAEERAALERSKAIEKNLKEDGISAAKDVKLLLLVGAGESGKSTIVKQMKIIHEDGFSGEDVKQYKPVVYSNTIQSLAAIVRAMDTLGIEYGDKERKADAKMVCDVVSRMEDTEPFSAELLSAMMRLWGDSGIQECFNRSREYQLNDSAKYYLDSLDRIGAADYQPTEQDILRTRVKTTGIVETHFTFKNLHFRLFDVGGQRSERKKWIHCFEDVTAIIFCVALSGYDQVLHEDETTNRMHESLMLFDSICNNKFFIDTSIILFLNKKDLFGEKIKKSPLTICFPEYTGPNTYEDAAAYIQAQFESKNRSPNKEIYCHMTCATDTNNIQVVFDAVTDIIIANNLRGCGLY
notes: Gαo (GNAO1) with the patient variant p.Leu39_Gly40insVal (c.116_118dup), introduced by site-directed mutagenesis into the non-tagged Gαo plasmid; De novo patient variant; also called p.Leu39_Gly40insVal; source: HEK293T, transfected (in lysate for co-IP; in cells for BRET)
In the case of B1, the “percent of the binding of wild-type” value is less than 15%.
